Assay results reported in PMC6599887, “Exploration of the TRIM Fold of MuRF1 Using EPR Reveals a Canonical Antiparallel Structure and Extended COS-Box” (Journal of Molecular Biology, 2019).
Numbering of substitutions follows the chain as printed. Names may count otherwise.

B1: MuRF1-HD K297C (cysteine-null background), MTSSL-labelled (domain or fragment, UniProt Q969Q1 155-328, looked up)
chain: EVAPLQSVFQGQKTELNNSISMLVAGNDRVQTIITQLEDSRRVTKENSHQVKEELSQKFDTLYAILDEKKSELLQRITQEQEKKLSFIEALIQQYQEQLDKSTKLVETAIQSLDEPGGATFLLTAKQLIKSIVEASKGSQLGCTEQGFENMDFFTLDLEHIADALRAIDFGTDE
modifications: MTSSL spin label (R1) on cysteine 297
notes: MuRF1 (TRIM63) helical domain, residues 155-328 of UniProtKB Q969Q1; also called K297R1; not shown: His6, N-terminal, cleaved; SUMO, N-terminal, cleaved
B2: MuRF1-HD R230C (cysteine-null background), MTSSL-labelled (domain or fragment, UniProt Q969Q1 155-328, looked up)
chain: B1 chain with R76C, C143K
modifications: MTSSL spin label (R1) on cysteine 230
notes: MuRF1 (TRIM63) helical domain, residues 155-328 of UniProtKB Q969Q1; also called R230R1; not shown: His6, N-terminal, cleaved; SUMO, N-terminal, cleaved
B3: MuRF1-HD E192C (cysteine-null background), MTSSL-labelled (domain or fragment, UniProt Q969Q1 155-328, looked up)
chain: B1 chain with E38C, C143K
modifications: MTSSL spin label (R1) on cysteine 192
notes: MuRF1 (TRIM63) helical domain, residues 155-328 of UniProtKB Q969Q1; also called E192R1; not shown: His6, N-terminal, cleaved; SUMO, N-terminal, cleaved
B4: MuRF1-HD E243C (cysteine-null background), MTSSL-labelled (domain or fragment, UniProt Q969Q1 155-328, looked up)
chain: B1 chain with E89C, C143K
modifications: MTSSL spin label (R1) on cysteine 243
notes: MuRF1 (TRIM63) helical domain, residues 155-328 of UniProtKB Q969Q1; also called E243R1; not shown: His6, N-terminal, cleaved; SUMO, N-terminal, cleaved
B5: MuRF1-HD E200C (cysteine-null background), MTSSL-labelled (domain or fragment, UniProt Q969Q1 155-328, looked up)
chain: B1 chain with E46C, C143K
modifications: MTSSL spin label (R1) on cysteine 200
notes: MuRF1 (TRIM63) helical domain, residues 155-328 of UniProtKB Q969Q1; also called E200R1; not shown: His6, N-terminal, cleaved; SUMO, N-terminal, cleaved
B6: MuRF1-HD K212C (cysteine-null background), MTSSL-labelled (domain or fragment, UniProt Q969Q1 155-328, looked up)
chain: B1 chain with K58C, C143K
modifications: MTSSL spin label (R1) on cysteine 212
notes: MuRF1 (TRIM63) helical domain, residues 155-328 of UniProtKB Q969Q1; also called K212R1; not shown: His6, N-terminal, cleaved; SUMO, N-terminal, cleaved
B7: MuRF1-HD E313C (cysteine-null background), MTSSL-labelled (domain or fragment, UniProt Q969Q1 155-328, looked up)
chain: B1 chain with C143K, E159C
modifications: MTSSL spin label (R1) on cysteine 313
notes: MuRF1 (TRIM63) helical domain, residues 155-328 of UniProtKB Q969Q1; also called E313R1; not shown: His6, N-terminal, cleaved; SUMO, N-terminal, cleaved
B8: MuRF1-HD E222C (cysteine-null background), MTSSL-labelled (domain or fragment, UniProt Q969Q1 155-328, looked up)
chain: B1 chain with E68C, C143K
modifications: MTSSL spin label (R1) on cysteine 222
notes: MuRF1 (TRIM63) helical domain, residues 155-328 of UniProtKB Q969Q1; also called E222R1; not shown: His6, N-terminal, cleaved; SUMO, N-terminal, cleaved
B9: MuRF1-HD R320C (cysteine-null background), MTSSL-labelled (domain or fragment, UniProt Q969Q1 155-328, looked up)
chain: B1 chain with C143K, R166C
modifications: MTSSL spin label (R1) on cysteine 320
notes: MuRF1 (TRIM63) helical domain, residues 155-328 of UniProtKB Q969Q1; also called R320R1; E320R1 (as printed once); not shown: His6, N-terminal, cleaved; SUMO, N-terminal, cleaved
B10: MuRF1-HD doubly labelled at E192R1 and R320R1 (cysteine-null background) (domain or fragment, UniProt Q969Q1 155-328, looked up)
chain: B1 chain with E38C, C143K, R166C
modifications: MTSSL spin label (R1) on cysteines 192 and 320
notes: MuRF1 (TRIM63) helical domain, residues 155-328 of UniProtKB Q969Q1; The double mutant is told only as labels placed at E192R1 and R320R1 simultaneously; the cysteine-null background follows from the methods; also called double-labeled sample; not shown: His6, N-terminal, cleaved; SUMO, N-terminal, cleaved
B11: MuRF1-HD F163C/L276C (in cysteine-null background) (domain or fragment, UniProt Q969Q1 155-328, looked up)
chain: B1 chain with F9C, L122C, C143K
modifications: disulfide bonds between the introduced cysteines after spontaneous oxidation
notes: MuRF1 (TRIM63) helical domain, residues 155-328 of UniProtKB Q969Q1; not shown: His6, N-terminal, cleaved; SUMO, N-terminal, cleaved
B12: MuRF1-HD S202C/Q235C (in cysteine-null background) (domain or fragment, UniProt Q969Q1 155-328, looked up)
chain: B1 chain with S48C, Q81C, C143K
modifications: disulfide bonds between the introduced cysteines after spontaneous oxidation
notes: as for B11
B13: MuRF1-HD V184C/L253C (in cysteine-null background) (domain or fragment, UniProt Q969Q1 155-328, looked up)
chain: B1 chain with V30C, L99C, C143K
modifications: disulfide bonds between the introduced cysteines after spontaneous oxidation
notes: as for B11

Target: the molecule itself
Assay: PELDOR (pulsed EPR, DEER); MTSSL-labelled protein, 100 to 200 uM MuRF1 dimer, deuterated Hepes pH 8.0/NaCl buffer mixed 1:1 with D8-glycerol, flash frozen; Q-band, 50 K; distances between labels across the protomers of the dimer

| Protein | binding result |
| --- | --- |
| B1 | binds |
| B2 | binds |
| B3 | binds |
| B4 | binds |
| B5 | binds |
| B6 | binds |
| B7 | binds |
| B8 | binds |
| B9 | binds |
| B10 | binds |

Target: the molecule itself
Assay: cross-linking; zero-length disulfide cross-linking by spontaneous oxidation: 20 uM protein reduced in 50 mM Tris-HCl pH 8.0, 100 mM NaCl, 20 mM beta-mercaptoethanol, dialysed overnight at 4 °C into the same buffer without reducing agent; non-reducing against reducing SDS-PAGE, Coomassie staining

| Protein | stoichiometry N |
| --- | --- |
| B11 | 2 |
| B12 | 2 |
| B13 | 2 |
